For test [1], the target named is Spike Delta (SARS-CoV-2).
Test [2] concerns the target T1, Spike Delta (SARS-CoV-2).
T1 construct: also called Delta spike; delta spike protein
Kind of test: SPR, Delta spike as solid phase [panel C]. In general terms: SPR reads the build-up and loss of mass on a sensor chip optically.

Where two headings read alike, the source gives them in different places.

B1: 1-Arm (designed binder)
LCB1 mini-binder coupled to a DNA handle that is hybridised to one arm of a 3-helix-bundle DNA nanostructure: DKEWILQKIYEIMRLLDELGHAEASMRVSDLIYEFMKKGDERLLEEAERLLEEVER
Turning to B1, in the test with Spike Delta [1], the affinity, expressed as Kd, was 0.14 nM.

B2: Tri-pdbody (designed binder)
LCB1 mini-binder coupled to a DNA handle that is hybridised to an arm of a 3-helix-bundle DNA nanostructure: DKEWILQKIYEIMRLLDELGHAEASMRVSDLIYEFMKKGDERLLEEAERLLEEVER
notes: also called 3-Arm; 3arm
Consider B2, for which the equilibrium dissociation constant (Kd) (in general, the constant that tells how readily two partners part at equilibrium) was 0.216 nM with Spike Delta [2] and 0.1 nM in the test with Spike Delta [1].

B3: 2-Arm (designed binder)
LCB1 mini-binder coupled to a DNA handle that is hybridised to an arm of a 3-helix-bundle DNA nanostructure: DKEWILQKIYEIMRLLDELGHAEASMRVSDLIYEFMKKGDERLLEEAERLLEEVER
Consider B3, for which binding in the test with Spike Delta [1] was characterised by a dissociation constant (Kd) of 0.14 nM.
